Drawing on paper PMC8252471, “Rerouting and Improving Dauc‐8‐en‐11‐ol Synthase from Streptomyces venezuelae to a High Yielding Biocatalyst” (Chemistry (Weinheim an Der Bergstrasse, Germany), 2021), this text covers Km and kcat for two proteins.

Substrate in the series: CC(C)=CCC/C(C)=C/CC/C(C)=C/CO[P@@](=O)(O)OP(=O)(O)O
The series can be described thus: enzyme kinetics. Format: biochemical, Streptomyces venezuelae.

B1: DcS (dauc-8-en-11-ol synthase; formerly isodauc-8-en-11-ol synthase, IdS) (Streptomyces venezuelae ATCC 10712) (protein)
chain: MTVRAVELPQLWMPYPLRVNPYLSALREESETWAREMGMLGGEGPSARGAIWTRSQFHAMTVELLTAWTLPDASLAGLRLNHRFNIWALAWDDYFASTFKQTGDLPGALDFTARLHAFLRPEADARSPEPVNAVERGIADLQKHLFPPRLAHWRQEFNLALAHYIDAGVQELTNSRGGRVPHLIEYAPFRRESFAAHTAPYSVELATGARIPEQLRHTRTVHALLDAFMDVMGLANDVASYEREVHEERDVNNLVVVIGTSLGITLHQAVPAALHMVNARMRDFEHLRHHELPPLVDRFGLRPDEREELETWLGGAASFLSGLHAWYTGAPRYAPTDHSVPEQRQRGGSEGAADRHAPAASSLARGAEAQTCGPTASAGSA
notes: motifs: D92 in 92DDYFA, R190, N236 in 236NDVASYERE, H58, H197, Y241
Consider B1, for which the Michaelis-Menten constant (Km) came out at 2.90 ± 0.02 mM and the kcat is 35.6 ± 2.9 s⁻¹.

B2: DcS (dauc-8-en-11-ol synthase; formerly isodauc-8-en-11-ol synthase, IdS) (Streptomyces venezuelae ATCC 10712; H197F/Y241F) (protein)
chain: MTVRAVELPQLWMPYPLRVNPYLSALREESETWAREMGMLGGEGPSARGAIWTRSQFHAMTVELLTAWTLPDASLAGLRLNHRFNIWALAWDDYFASTFKQTGDLPGALDFTARLHAFLRPEADARSPEPVNAVERGIADLQKHLFPPRLAHWRQEFNLALAHYIDAGVQELTNSRGGRVPHLIEYAPFRRESFAAFTAPYSVELATGARIPEQLRHTRTVHALLDAFMDVMGLANDVASFEREVHEERDVNNLVVVIGTSLGITLHQAVPAALHMVNARMRDFEHLRHHELPPLVDRFGLRPDEREELETWLGGAASFLSGLHAWYTGAPRYAPTDHSVPEQRQRGGSEGAADRHAPAASSLARGAEAQTCGPTASAGSA
notes: motifs: D92 in 92DDYFA, R190, N236 in 236…, H58, H197, Y241
B2: the Michaelis-Menten constant (Km) came out at 5.95 ± 0.02 mM and the kcat worked out at 65.5 ± 8.6 s⁻¹.

As usually defined, the Km is the substrate concentration at which the rate is half of its maximum. A word on the kcat: it is the maximal rate divided by the concentration of active sites.
